To fix the notation:
T1: human FcγRIIa type H (allotype H131) (human, UniProt P12318 36-217)
T1 construct: also called FcγRIIaH; FcγRIIa(H)
T1 sequence: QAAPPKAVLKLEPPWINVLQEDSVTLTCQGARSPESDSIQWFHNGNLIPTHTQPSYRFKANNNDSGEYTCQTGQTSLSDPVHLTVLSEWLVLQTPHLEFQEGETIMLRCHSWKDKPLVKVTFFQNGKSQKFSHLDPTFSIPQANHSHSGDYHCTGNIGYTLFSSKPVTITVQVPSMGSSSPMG

T2: human FcγRIIb (human, UniProt P31994 43-217, limits assumed)
T2 construct: also called FcγIIB; hFcgRIIb
T2 sequence: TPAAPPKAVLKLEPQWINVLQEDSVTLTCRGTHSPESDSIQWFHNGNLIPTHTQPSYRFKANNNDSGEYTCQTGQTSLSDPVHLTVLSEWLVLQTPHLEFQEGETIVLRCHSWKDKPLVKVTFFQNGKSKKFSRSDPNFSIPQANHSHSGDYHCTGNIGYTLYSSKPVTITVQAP

T3: human FcγRIIb (human, UniProt P31994 43-217)
T3 construct: also called FcγIIB
T3 sequence: T2 sequence

B1: IL6R-BP194/IL6R-L (antibody, human IgG1)
heavy: QVQLQESGPGLVKPSETLSLTCAVSGHSISHDHAWSWVRQPPGEGLEWIGFISYSGITNYNPSLQGRVTISRDNSKNTLYLQMNSLRAEDTAVYYCARSLARTTAMDYWGEGTLVTVSSASTKGPSVFPLAPSSKSTSGGTAALGCLVKDYFPEPVTVSWNSGALTSGVHTFPAVLQSSGLYSLSSVVTVPSSSLGTQTYICNVNHKPSNTKVDKKVEPKSCDKTHTCPPCPAPDYLGDDSVFLFPPKPKDTLMISRTPEVTCVVVDVSDEDGEVKFNWYVDGVEVHNAKTKPREEQYNSTYRVVSVLTVLHQDWLNGKEYKCKVSNAALPKPIEKTISKAKGQPREPQVYTLPPSRDELTKNQVSLTCLVKGFYPSDIAVEWESNGQPENNYKTTPPVLDSDGSFFLYSKLTVDKSRWQQGNVFSCSVMHEALHNHYTQESLSLSP
light: DIQMTQSPSSLSASVGDRVTITCRASQDISSYLNWYQQKPGKAPKLLIYYTSRLHSGVPSRFSGSGSGTDFTFTISSLQPEDIATYYCQQGNTLPYTFGQGTKVEIK
notes: Anti-human IL-6 receptor human IgG1 variant; copies: 2 + 2
B2: IL6R-BP201/IL6R-L (antibody, human IgG1)
heavy: B1 heavy with Y236L, D270H, A328K, K332R
light: B1 light
notes: as for B1
B3: IL6R-BP189/IL6R-L (antibody, human IgG1)
heavy: B1 heavy with D235E, Y236L
light: B1 light
notes: as for B1
B4: IL6R-BP184/IL6R-L (antibody, human IgG1)
heavy: B1 heavy with Y236L, D239G, D270H, A328K
light: B1 light
notes: as for B1
B5: IL6R-BP202/IL6R-L (antibody, human IgG1)
heavy: B1 heavy with D235E, Y236L, D270H, K332R
light: B1 light
notes: as for B1
B6: IL6R-BP133/IL6R-L (antibody, human IgG1)
heavy: B1 heavy with D239G, D270H, G273P, A328K
light: B1 light
notes: copies: 2 + 2
B7: antibody with VH3-IgG1-F821 heavy chain and L(WT)-CK light chain (antibody)
heavy: QVQLQESGPGLVKPSETLSLTCAVSGHSISHDHAWSWVRQPPGEGLEWIGFISYSGITNYNPSLQGRVTISRDNSKNTLYLQMNSLRAEDTAVYYCARSLARTTAMDYWGEGTLVTVSSASTKGPSVFPLAPSSKSTSGGTAALGCLVKDYFPEPVTVSWNSGALTSGVHTFPAVLQSSGLYSLSSVVTVPSSSLGTQTYICNVNHKPSNTKVDKKVEPKSCDKTHTCPPCPAPELRGGPKVFLFPPKPKDTLYISRTPEVTCVVVDVSHEDPEVKFNWYVDGVEVHNAKTKPREEQYNSTYRVVSVLTVLHQDWLNGKEYKCKVSNKALPAPIEKTISKAKGQPREPQVYTLPPSRDELTKNQVSLTCLVKGFYPSDIAVEWESNGQPENNYKTTPPVLDSDGSFFLYSKLTVDKSRWQQGNVFSCSVMHEALHYHYTQKSLSLSP
light: not shown
notes: copies: 2 + 2
B8: antibody with VH3-IgG1-F1009 heavy chain and L(WT)-CK light chain (antibody)
heavy: B7 heavy with T252V, T309Q, V310P, Q313A, Y438V
light: not shown
notes: copies: 2 + 2
B9: antibody with VH3-IgG1-F890 heavy chain and L(WT)-CK light chain (antibody)
heavy: B7 heavy with R237L, K241S, Y438V
light: not shown
notes: copies: 2 + 2
B10: antibody with VH3-IgG1-F939 heavy chain and L(WT)-CK light chain (antibody)
heavy: B7 heavy with Y438V
light: not shown
notes: copies: 2 + 2
B11: antibody with mPM1H-mIgG1-mF14 heavy chain (antibody)
heavy: DVQLQESGPVLVKPSQSLSLTCTVTGYSITSDHAWSWIRQFPGNKLEWMGYISYSGITTYNPSLKSRISITRDTSKNQFFLQLNSVTTGDTSTYYCARSLARTTAMDYWGQGTSVTVSSAKTTPPSVYPLAPGSAAQTNSMVTLGCLVKGYFPEPVTVTWNSGSLSSGVHTFPAVLQSDLYTLSSSVTVPSSTWPSETVTCNVAHPASSTKVDKKIVPRDCGCKPCICTVPEVSSVFIFPPKPKDVLYITLEPKVTCVVVDISKDDPEVQFSWFVDDVEVHTAQTQPREEQFNSTFRSVSELPIMHQDWLNGKEFKCRVNSAAFPAPIEKTISKTKGRPKAPQVYTIPPPKEQMAKDKVSLTCMITDFFPEDITVEWQWNGQPAENYKNTQPIMDTDGSYFVYSKLNVQKSNWEAGNTFTCSVLHEGLKNHHTEKSLSHSPGK
light: not shown
notes: also called mPM1-mIgG1-mF14; copies: 2 + 2
B12: antibody with mPM1H-mIgG1-mF38 heavy chain (antibody)
heavy: B11 heavy with K429H, N430W
light: not shown
notes: also called mPM1-mIgG1-mF38; copies: 2 + 2
B13: antibody with mPM1H-mIgG1-mF39 heavy chain (antibody)
heavy: B11 heavy with P231K, S235K
light: not shown
notes: also called mPM1-mIgG1-mF39; copies: 2 + 2
B14: antibody with mPM1H-mIgG1-mF40 heavy chain (antibody)
heavy: B11 heavy with P231K, S235K, K429H, N430W
light: not shown
notes: also called mPM1-mIgG1-mF40; copies: 2 + 2
B15: F1079 (antibody, human IgG1, kappa, name in EU numbering)
heavy: B7 heavy with R237L, K241S, E384N, N386S
light: not shown
notes: copies: 2 + 2
B16: F1076 (antibody, human IgG1, kappa, name in EU numbering)
heavy: B7 heavy with R237L, K241D, K328D, L330Y, Y438V
light: not shown
notes: copies: 2 + 2
B17: F1099 (antibody, human IgG1, kappa, name in EU numbering)
heavy: B7 heavy with R237L, K241S, K328D, L330Y
light: not shown
notes: copies: 2 + 2
B18: F1078 (antibody, human IgG1, kappa, name in EU numbering)
heavy: B7 heavy with R237L, K241S, E382N, E384S
light: not shown
notes: copies: 2 + 2
B19: F1213 (antibody, human IgG1, kappa, name in EU numbering)
heavy: B7 heavy with R237L, K241S, L253N, Y438V
light: not shown
notes: copies: 2 + 2
B20: antibody containing VH3-IgG2-F890 and L(WT)-CK (antibody)
heavy: QVQLQESGPGLVKPSETLSLTCAVSGHSISHDHAWSWVRQPPGEGLEWIGFISYSGITNYNPSLQGRVTISRDNSKNTLYLQMNSLRAEDTAVYYCARSLARTTAMDYWGEGTLVTVSSASTKGPSVFPLAPCSRSTSESTAALGCLVKDYFPEPVTVSWNSGALTSGVHTFPAVLQSSGLYSLSSVVTVPSSNFGTQTYTCNVDHKPSNTKVDKTVERKCCVECPPCPAPPVAGPSVFLFPPKPKDTLYISRTPEVTCVVVDVSHEDPEVQFNWYVDGVEVHNAKTKPREEQFNSTFRVVSVLTVVHQDWLNGKEYKCKVSNKGLPAPIEKTISKTKGQPREPQVYTLPPSREEMTKNQVSLTCLVKGFYPSDIAVEWESNGQPENNYKTTPPMLDSDGSFFLYSKLTVDKSRWQQGNVFSCSVMHEALHYHVTQKSLSLSP
light: not shown
notes: VH3-IgG2 with M252Y/N434Y/Y436V (EU numbering)
B21: antibody containing VH3-IgG2 and L(WT)-CK (antibody)
heavy: B20 heavy with Y250M, Y432N, V434Y
light: not shown
B22: antibody containing VH3-IgG2-F939 and L(WT)-CK (antibody)
heavy: B20 heavy with A234R, S237K
light: not shown
notes: VH3-IgG2 with A235R/S239K/M252Y/N434Y/Y436V (EU numbering)
B23: antibody containing VH3-IgG4-F890 and L(WT)-CK (antibody)
heavy: QVQLQESGPGLVKPSETLSLTCAVSGHSISHDHAWSWVRQPPGEGLEWIGFISYSGITNYNPSLQGRVTISRDNSKNTLYLQMNSLRAEDTAVYYCARSLARTTAMDYWGEGTLVTVSSASTKGPSVFPLAPCSRSTSESTAALGCLVKDYFPEPVTVSWNSGALTSGVHTFPAVLQSSGLYSLSSVVTVPSSSLGTKTYTCNVDHKPSNTKVDKRVESKYGPPCPPCPAPEFLGGPSVFLFPPKPKDTLYISRTPEVTCVVVDVSQEDPEVQFNWYVDGVEVHNAKTKPREEQFNSTYRVVSVLTVLHQDWLNGKEYKCKVSNKGLPSSIEKTISKAKGQPREPQVYTLPPSQEEMTKNQVSLTCLVKGFYPSDIAVEWESNGQPENNYKTTPPVLDSDGSFFLYSRLTVDKSRWQEGNVFSCSVMHEALHYHVTQKSLSLSL
light: not shown
notes: VH3-IgG4 with M252Y/N434Y/Y436V (EU numbering)
B24: antibody containing VH3-IgG4-F939 and L(WT)-CK (antibody)
heavy: B23 heavy with L234R, S238K
light: not shown
notes: VH3-IgG4 with L235R/S239K/M252Y/N434Y/Y436V (EU numbering)

Changes are numbered by the printed parent chain. Names may count otherwise.

T7 sequence (P08637 other isoform, or with tags, fused parts or gaps limits assumed): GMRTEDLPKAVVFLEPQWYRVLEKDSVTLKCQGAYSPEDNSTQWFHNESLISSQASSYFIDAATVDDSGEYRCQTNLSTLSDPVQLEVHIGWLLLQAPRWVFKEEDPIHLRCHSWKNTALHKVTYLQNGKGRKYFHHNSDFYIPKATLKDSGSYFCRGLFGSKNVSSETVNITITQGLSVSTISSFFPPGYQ

One assay deals with T1, human FcγRIIa type H (allotype H131). Put plainly: SPR (Biacore), antibody captured on the chip, FcγR as analyte. A general note: Surface plasmon resonance follows binding to a sensor surface in real time, without labels.
For orientation: Kd means the constant that tells how readily two partners part at equilibrium. Low values mean tighter binding, high ones weaker binding. The molecule B1 gave a Kd of 6500 nM.
B2: binding was put at a Kd of 6900 nM.
B3 registered an equilibrium dissociation constant (Kd) of 2100 nM.
In turn, B4 showed a Kd of 3000 nM.
The same measure, in the same setting: the figure for B5 is 9200 nM.

A further assay deals with T4, human FcγRIIIa type V (allotype V158) (human, UniProt P08637 17-208, limits assumed).
T4 construct: the assay used allotype V158; also called FcγRIIIaV; FcγRIIIa(V)
T4 sequence (P08637 other isoform, or with tags, fused parts or gaps limits assumed): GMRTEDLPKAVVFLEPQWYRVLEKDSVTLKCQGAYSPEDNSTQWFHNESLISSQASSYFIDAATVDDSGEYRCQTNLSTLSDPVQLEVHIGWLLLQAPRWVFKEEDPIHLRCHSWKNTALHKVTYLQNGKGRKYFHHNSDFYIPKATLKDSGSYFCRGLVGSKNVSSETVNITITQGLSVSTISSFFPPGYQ
Described as above.
Molecule B1 displayed a Kd of 27000 nM.
On the same count and under the same terms, next, B3: 49000 nM.
Molecule B4 returned a Kd of 66000 nM.

The target of another assay is T2, human FcγRIIb. The assay can be described thus: SPR KD for FcγRIIb of parent IL6R-B3/IL6R-L divided by that of this variant.
Excerpt: (§1) Furthermore, KD(IIaR)/KD(IIb) and KD(IIaH)/KD(IIb) in the table respectively represent the value obtained by dividing the KD value of each variant for FcγRIIaR by the KD value of each variant for FcγRIIb, and the value obtained by dividing the KD value of each variant for FcγRIIaH by the KD value of each variant for FcγRIIb.
Turning to B6, the “KD(IIb) of the parent polypeptide/KD(IIb) of the altered polypeptide” value (from here on “KD(IIb)”) came to 5.5.

For another assay, the target named is T5, mouse FcγRIV (mouse).
T5 construct: Bought soluble receptor; also called mFcgRIV; mFcgR IV
T5 sequence (A0A0B4J1G0 21-203): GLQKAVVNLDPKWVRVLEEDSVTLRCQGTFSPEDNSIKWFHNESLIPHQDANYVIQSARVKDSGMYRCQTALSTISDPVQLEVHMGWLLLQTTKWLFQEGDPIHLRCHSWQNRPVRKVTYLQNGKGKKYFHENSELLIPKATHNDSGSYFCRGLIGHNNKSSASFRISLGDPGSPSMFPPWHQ
The assay can be described thus: SPR (Biacore), antibody captured on Protein L, mouse FcγR as analyte, pH 7.4, 25 C.
Description: (§2) Binding activity between the antibodies and mouse FcγRI, FcγRII, FcγRIII and FcγRIV (R&D Systems, Sin θ Biological) (hereinafter referred to as mouse FcγRs) was evaluated using the Biacore T100 or T200 (GE Healthcare). The antibodies being tested were captured by Protein L (ACTIGEN) that was immobilized in suitable amounts on the CM4 Sensor Chip (GE Healthcare) by amine coupling. Next, the diluted mouse FcγRs and a running buffer used as a blank were injected to allow interaction with the antibody captured on the sensor chip. A buffer consisting of 20 mmol/L ACES, 150 mmol/L NaCl and 0.05% (w/v) Tween 20 (pH 7.4) was used for the running buffer, and this buffer was also used to dilute the mouse FcγRs. 10 mmol/L glycine-HCl (pH 1.5) was used to regenerate the sensor chip. All measurements were carried out at 25° C.
With B7, the “BINDING AMOUNT (RU)” value was -3.8 RU.
The same measure, in the same setting: the figure for B8 is 7.2 RU.
Turning to B9, the “BINDING AMOUNT (RU)” value was 230 RU.
As for B10, the “BINDING AMOUNT (RU)” value was -7.3 RU.

A further assay deals with T5, mouse FcγRIV. The assay is described as above. This is another data set of the same source.
Description: as §2
For the molecule B11, the “BINDING AMOUNT (RU)” value was -8 RU.
As for B12, the “BINDING AMOUNT (RU)” value was -4.1 RU.
Take B13: the “BINDING AMOUNT (RU)” value is -3.8 RU.
Same read-out and setting: the figure for B14 is -8.9 RU.

Another assay deals with T6, human FcRn (human).
T6 construct: also called hFcRn; soluble human FcRn complexed with β2-microglobulin
T6 sequence (chain, as listed by the source limits assumed, chain 1 of 2): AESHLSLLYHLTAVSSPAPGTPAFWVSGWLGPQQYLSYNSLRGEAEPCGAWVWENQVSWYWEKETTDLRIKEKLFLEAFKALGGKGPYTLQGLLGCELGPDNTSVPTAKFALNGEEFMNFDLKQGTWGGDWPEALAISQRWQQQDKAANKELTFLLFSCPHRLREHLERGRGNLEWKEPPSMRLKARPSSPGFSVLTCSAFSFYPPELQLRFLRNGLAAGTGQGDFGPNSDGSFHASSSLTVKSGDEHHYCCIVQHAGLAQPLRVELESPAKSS
T6 sequence (P61769 21-119 limits assumed, chain 2 of 2): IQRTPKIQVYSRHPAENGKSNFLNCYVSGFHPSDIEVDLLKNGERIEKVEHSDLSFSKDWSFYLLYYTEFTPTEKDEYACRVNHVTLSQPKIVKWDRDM
Put plainly: SPR (Biacore), pH 7.0, 25 C, antibody captured by Protein L, human FcRn as analyte.
Description: (§3) A kinetic analysis of binding between human FcRn and the aforementioned antibodies was carried out using the Biacore T100 or T200 (GE Healthcare). The antibodies being tested were captured on the CM4 Sensor Chip (GE Healthcare) on which a suitable amount of Protein L (ACTIGEN) was suitably immobilized by amine coupling. Next, diluted human FcRn and a running buffer used as a blank were injected to allow the human FcRn to interact with the antibody captured on the sensor chip. A buffer consisting of 50 mmol/L sodium phosphate, 150 mmol/L NaCl and 0.05% (w/v) Tween 20 (pH 7.0 or pH 7.4) was used for the running buffer, and each buffer was also used to dilute the human FcRn. 10 mmol/L glycine-HCl (pH 1.5) was used to regenerate the sensor chip. All measurements of binding were carried out at 25° C. The KD(M) of each antibody to human FcRn was calculated based on kinetics parameters, i.e., the association rate constant ka (1/Ms) and the dissociation rate constant kd (1/s) calculated from a sensorgram obtained by the measurement. The Biacore T100 or T200 Evaluation Software (GE Healthcare) was used to calculate each parameter.
Molecule B15 returned a Kd of 344 nM.
Turning to B16, the Kd came to 127 nM.
Same read-out and setting: next, B17: 257 nM.
B18 displayed a dissociation constant Kd of 470 nM.

The target in the next assay is T6, human FcRn. Described as above. The source holds these as a separate data set.
Description: as §3
In turn, B19 came in with a Kd of 633 nM.

For the next assay, the target named is T3, human FcγRIIb. The assay can be described thus: SPR (Biacore); KD of parent IL6R-B3/IL6R-L for FcγRIIb divided by KD of the variant for FcγRIIb.
Excerpt: as §1
On to B1, for which the “KD(IIb)” value amounted to 59.4.
Still for that read-out and setting: the figure for B2 is 77.1; for B3 it is 41.8; for B4 it is 24.5.
In the case of B5, the “KD(IIb)” value is 48.4.

A further assay addresses T7, human FcγRIIIa(F) (human, UniProt P08637 17-208, limits assumed).
T7 construct: also called FcgRIIIaF; hFcgRIIIa(F)
The assay can be described thus: SPR (Biacore), antibody captured by Protein L, FcγR as analyte, pH 7.4, 25°C; amount normalised to captured antibody.
Description: Binding activity between the antibodies and human FcγRIa, FcγRIIa(H), FcγRIIa(R), FcγRIIb and FcγRIIIa(F) (hereinafter referred to as human FcγRs) was evaluated using the Biacore T100 or T200 (GE Healthcare). The antibodies being tested were captured by Protein L (ACTIGEN) that was immobilized in suitable amounts on the CM4 Sensor Chip (GE Healthcare) by amine coupling. Next, the diluted human FcγRs and a running buffer used as a blank were injected to allow interaction with the antibodies captured on the sensor chip. A buffer consisting of 20 mmol/L ACES, 150 mmol/L NaCl and 0.05% (w/v) Tween 20 (pH 7.4) was used for the running buffer, and this buffer was also used to dilute the human FcγRs. 10 mmol/L glycine-HCl (pH 1.5) was used to regenerate the sensor chip. All measurements were carried out at 25° C.
In the case of B20, the “BINDING AMOUNT (RU)” value was 9.3 RU.
Still for that read-out and setting: the figure for B21 is 16.3 RU.
Still for that read-out and setting: next, B22: 0.6 RU; B23: 3.4 RU.
On to B24, for which the “BINDING AMOUNT (RU)” value is -1.7 RU.

These data come from US20140105889A1 (published 2014).
